± gives the standard error. Fewer inactive variants are shown than the library holds.
B1: glmS ribozyme (parent)
chain: AUAAAAGCGCCAGAACUACAGAAAUGUAGUUGACGAGGAGGAGGUUUAUCGAAUUUUCGGCGGAUGCCUCCAAA

Assays:
Details in all cases: with glucosamine-6-phosphate
glucosamine-6-phosphate [1] = variants of: B1; assay: self-cleavage kobs at 640 uM GlcN6P; higher = faster cleavage; RNA array
In short: (§1)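 Tiles of sequenced MiSeq chips were imaged over ~14 h at 37 °C. On them, barcoded ribozyme variants had been transcribed in situ by E. coli RNA polymerase and were tracked via a hybridised Cy3 probe while glucosamine-6-phosphate (40 μM to 10 mM) in HEPES/KCl/Mg(OAc)2 buffer flowed in. Per-tile medians, normalised to baseline and to non-cleaving reference variants, were fit to one- or two-exponential decays for kobs, and weighted Michaelis–Menten fits gave kcat and KM.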

glucosamine-6-phosphate [2] = variants of: B1; assay: self-cleavage kobs at 2500 uM GlcN6P; higher = faster cleavage; RNA array
In short: as §1

glucosamine-6-phosphate [3] = variants of: B1; assay: self-cleavage kobs at 10000 uM GlcN6P; higher = faster cleavage; RNA array
In short: as §1

Variant	self-cleavage kobs at 640 uM GlcN6P (glucosamine-6-phosphate [1]) [s⁻¹]	self-cleavage kobs at 2500 uM GlcN6P (glucosamine-6-phosphate [2]) [s⁻¹]	self-cleavage kobs at 10000 uM GlcN6P (glucosamine-6-phosphate [3]) [s⁻¹]
AUAAAAGGGCCAGAACUACAGAAAUGUAGUUGACAAGGAGGAGGUUUAUCGAAUUUUCGGCGGAUGCCUGCAAA [C8G G35A C70G]	< 1e-05		
AUAAAAGGGCCAGAACUACAGAAAUGUAGCUGACGAGGAGGAGGUUUAUCGAAUUUUCGGCGGCUGCCUCCAAA [C8G U30C A64C]	< 1e-05	< 1e-05	< 1e-05
AUAAAAGGGCCAGAACUACAGAAAUGUAGUUGACGAGGAGGAGGUUUAUCGAAUUUUCGAGGGAUGCCUCCAAA [C8G G60A C61G]	< 1e-05	< 1e-05	
AUAAAAGUGCCAGAACUACAGAAAUGUAGUCGACGAGGAGGAGGUUUAUCGAAUUUUCGGCGGAUGCCACCAAA [C8U U31C U69A]	0.00179 ± 0.00081		
AUAAAAGUGCCAGAACUACAGAAAUGUAGUGGACGAGGAGGAAGUUUAUCGAAUUUUCGGCGGAUGCCUCCAAA [C8U U31G G43A]	< 1e-05		
AUAAAAGUGCCAGAACUACAGAAAUGUAGUUGCCCAGGAGGAGGUUUAUCGAAUUGUCGGCGGACGCCUCCAAA [C8U A33C G35C U56G U65C]	< 1e-05	< 1e-05	
AUAAAAGUGCCAGAACUACAGAAAUGUAGUUGACGAGGAGGAGGUGUAUCUAAUUUUCGGCGGAUUCCUGUAAA [C8U U46G G51U G66U C70G C71U]	< 1e-05		
AUAAAAGGGCCAGAACUACAGAAAUGUAGAUGACGAGGAGGAUGUUUAUCGAAUUUUCGGCGGAUGCCUCCAAA [C8G U30A G43U]	< 1e-05		
AUAAAAGGGCCAGAACUACAGAAAUGUAGUUGACGAGGAGGAGGUUUAUCGAAUGUUCGGCGGAUGCCUCCAAA [C8G U55G]	< 1e-05	< 1e-05	
AUAAAAGCAUCAGAACUACAGAAAUGUAGUUGACGAGGAGGGGGUUUAUCGAUUUUUCGGCGGAUGCCUCCAAA [G9A C10U A42G A53U]	< 1e-05	< 1e-05	
AUAAAAGGGCCAUAACUACAGAAAUGUAGUUGUCGAGAAGGAGGUUUAUCGAAUUUUCGGCGGAUGCCUCCAAA [C8G G13U A33U G38A]	< 1e-05		
AUAAAAGUGCCAGAACUACAGAAAUGUAGUUGACGAGGAGGAGUUUUAUCGAAUUUUCGUCGGAUGCCUCCAAA [C8U G44U G60U]	< 1e-05		
AUAAAAGGGCCAGAACUACAGAAAUGUAGUUAACGAGGAGGAGGUUUAUCGAGUUUUCGGCGGAUGCCUCCAAA [C8G G32A A53G]	< 1e-05		
AUAAAAGGGCCAGAACUACAGAAAUGUAGUAGACGAGGCGGAGUUUUAUCGAAUUUUCGGCGGAUGCCUCCAAA [C8G U31A A39C G44U]	< 1e-05		
AUAAAAGUGCCAGAACUACAGAAAUGUAGAUGACGAGGAGGAGGUUUAUCGAAUUUUCGGCCGAUGCCUCCAAA [C8U U30A G62C]	< 1e-05		
AUAAAAGCACCAGAACUACAGAAAUGUAGUUGACGUGGAGGAGGUUUAUCGAAUUGUCGGCGGAUGCCUCCAAA [G9A A36U U56G]	< 1e-05		
AUAAAAGGGCCACAACUACAGAAAUGUAGUUGACGAGGAGGAGGUUUAUCGUUUUUUCGGCGGAUGCCUCUAAA [C8G G13C A52U A53U C71U]	< 1e-05		< 1e-05
AUAAAAGUGCCAGAACUACAGAAAUGUAGUUGACGAGGAGGUGGUUUAGCGGAUUUGCGGCGGAUGCCUCCAAA [C8U A42U U49G A52G U57G]	< 1e-05	< 1e-05	
AUAAAAGUGCCAGAACUACAGAAAUGUAGUUGACGAGGAUGAGGUUUAUCGAAUUUUCUGCGGAUGCUUCCAAA [C8U G40U G59U C68U]	< 1e-05		
AUAAAAGUGCCAGAACUACAGAAAUGUAGUUGACGAGGAGGAGGUUUAUCGAAUUUUCGGCGGAUGCCUGCAAA [C8U C70G]	0.0011 ± 0.00055		
AUAAAAGCAUCAGAACUACAGAAAUGUAGUUGACGAGGAGGAGGUUUAUCGAAUUUUUGGCGGAUGCCUCCAAA [G9A C10U C58U]	< 1e-05		
AUAAAAGGGCCAGAACUACAGAAAUGUAAUUGACGAGGAGGAGGUUUAUCCAAUUUUCUGCGGAUGCCUCCAAA [C8G G29A G51C G59U]	< 1e-05		
AUAAAAGGGCCAUAACUACAGAAAUGUAGUUGUCGAGGAGGAGGUUUAUCGAAUUUGCGGCGGAUGCCUCCAAA [C8G G13U A33U U57G]	< 1e-05	< 1e-05	
AUAAAAGUGCCAGAACUACAGAAAUGUAGUUGACGAGGAGGAGGUUUAUCGAAUUUUCGACGGACGCCUCCAAA [C8U G60A U65C]	< 1e-05		
AUAAAAGUGCCAGAACUACAGAAAUGUAGUUGACGAGGAGGAGGUUUGUCGAAUUUUCGGCGGGUGCCUCCAAA [C8U A48G A64G]	< 1e-05		

Variant	self-cleavage kobs at 640 uM GlcN6P (glucosamine-6-phosphate [1]) [s⁻¹]	self-cleavage kobs at 2500 uM GlcN6P (glucosamine-6-phosphate [2]) [s⁻¹]	self-cleavage kobs at 10000 uM GlcN6P (glucosamine-6-phosphate [3]) [s⁻¹]
AUAAAAGUGCCGGAACUACAGAAAUGUAGUUGACGAGGAGGAGGUUUAUCGAAUUUUCGGCGGAUUCCUCCAAA [C8U A12G G66U]	< 1e-05		
AUAAAAGCAGCAGAACUACAGAAAUGUAGUUGACGAGGAGGAGGUUUAUCGAAUUUUUGGCGGAUGCCUCCAAA [G9A C10G C58U]	< 1e-05	< 1e-05	
AUAAAAGUGCCAGAACUACAGAAAUGUAGUUCACGAGGAGGAGGCUUAUCGAAUUUUCGGCGGAUGCCUCCAAA [C8U G32C U45C]	< 1e-05	< 1e-05	
AUAAAAGGGCCAGAACUACAGAAAUGUAGUUCACGAGCAGGAGGUUUAUCGAAGUUUCGGCGGAUGCCUCCAAA [C8G G32C G38C U54G]	< 1e-05	< 1e-05	< 1e-05
AUAAAAGUGCCAGAACUACAGAAAUGUAGUUGACGACGAGGAGGUUUAUCGGAUUUUCGGCGGAUGCCUCCAAA [C8U G37C A52G]	< 1e-05		
AUAAAAGCACCAGAACUACAGAAAUGUAGUUGACGGGGCGGAGGUUUAUCGAAUUUUCGGCGGAUGCCUGCAAA [G9A A36G A39C C70G]	< 1e-05	< 1e-05	
AUAAAAGUGUCAGAACUACAGAAAUGUAGUUGACGAGGAGGAGGCUUAUCGAAUUUUCGGCGGAUGCCUCCAAA [C8U C10U U45C]	< 1e-05	< 1e-05	
AUAAAAGUUCCAUAACUACAGAAAUGUAGUUGACGAGGAGUUGGUUUAUGGAAUUUUCGGCGGAUGCUUCCAAA [C8U G9U G13U G41U A42U C50G C68U]	< 1e-05	< 1e-05	
AUAAAAGCACCAGUACUACAGAAAUGUAGUUGACGAGGAGGAGGUUUAUCGAAUUUUCGGCGGAUGCCUCCAAA [G9A A14U]	< 1e-05	< 1e-05	
AUAAAAGUGCCAGAACUACAGAAAUGUAGUUGACGAGGAGGAAGUUUAUCGAACUUUCGGCGGAUGCCUCCAAA [C8U G43A U54C]	< 1e-05		
AUAAAAGUGCCAGAACUACAGAAAUGUAGUUGACAAGGAGGAGGUUUAACGAAUUUUCGGCGGAUGCCUCCAAA [C8U G35A U49A]	< 1e-05		
AUAAAAGUGCCAGACGUACAGAAAUGUAGCUGACGAGGAGGAGGUUUAUCGAAUUUUCGGCGGAUGCCUCCAAA [C8U A15C C16G U30C]	< 1e-05		
AUAAAAGUGCCAGAACUACAGAAAUGUAGAUGACGAGGAGGAGGUUUAUCGAAUUUUCGGCGGAUGCCUCUAAA [C8U U30A C71U]	< 1e-05		
AUAAAAGUGCCAGGACUACAGAAAUGUAGUUUCCGAGGAGGAGGUUUAUCGAAUUUUCGGCGGAUGCCUCCAAA [C8U A14G G32U A33C]	< 1e-05		
AUAAAAGUGCCAGAACUACAGAAAUGUAGUUGGCGAGAAGGAGGUUUAUCGAAUUUUCAGCGGAUGCCUGCAAA [C8U A33G G38A G59A C70G]	5.19e-05 ± 1.9e-05		
AUAAAAGGGCCAGAACUACAGAAAUGUAGUCGACGAGAAGGAGGUUUAUCGAAUUUUCGGCGGAUGCCUCCAAA [C8G U31C G38A]	< 1e-05		< 1e-05
AUAAAAGGGCCAGAACUACAGAAAUGUAGUUGACGAGGAGGAGGUUUAUCGAAUUUUCGGCGGAUCCCUCCAAA [C8G G66C]	< 1e-05	< 1e-05	
AUAAAAGGGCCAGAACUACAGAAAUGUAGUUGACGAGGACGAGGUUUAUCGAAUUUUCGGCGGAUGCCUCCAAA [C8G G40C]	< 1e-05	< 1e-05	< 1e-05
AUAAAAGUGCCAGAACUACAGAAAUGUAGUUGACGAGGAGGAGGUUUAUCGAAUGUUCGUCGGAUGCCUCCAAA [C8U U55G G60U]	< 1e-05		
AUAAAAGUGCCAGAACUACAGAAAUGUAGUUGACGAGGAGGAGACUUAUCGAAUUUUCGGCGGAUGCCUCCAAA [C8U G44A U45C]	< 1e-05	< 1e-05	
AUAAAAGUGCCAGAACUACAGAAAUGUAGUUAAGGAGGAGGAGGUUUAUCGAAUUUUCGGCGGAUGCCUCCAAA [C8U G32A C34G]	< 1e-05	< 1e-05	
AUAAAAGUGCCAGAACUACAGAAAUGUAGUUGACGAGGUCGAGGUUUAUCGAAUUGGCGGCGGAUGCCUCCAAA [C8U A39U G40C U56G U57G]	< 1e-05		
AUAAAAGGGCCAGAACUACAGAAAUGUAGUUGACUAAGAGGAGGUUUUUCGAAUUUUCGGCGGAUGUCUCCAAA [C8G G35U G37A A48U C67U]	< 1e-05	< 1e-05	
AUAAAAGUGCCUGUACUACAGAAAUGUAGUUGACGAGGAGGAGAUUUAUCGAAUUUUCGGUGGAUGCCUCCAAA [C8U A12U A14U G44A C61U]	< 1e-05	< 1e-05	

— the supplement of paper PMC7125110
